{
  "source": "paper PMC11363328",
  "biological_target": "DDX3X (UniProt O00571)",
  "sequence (O00571 132-607)": "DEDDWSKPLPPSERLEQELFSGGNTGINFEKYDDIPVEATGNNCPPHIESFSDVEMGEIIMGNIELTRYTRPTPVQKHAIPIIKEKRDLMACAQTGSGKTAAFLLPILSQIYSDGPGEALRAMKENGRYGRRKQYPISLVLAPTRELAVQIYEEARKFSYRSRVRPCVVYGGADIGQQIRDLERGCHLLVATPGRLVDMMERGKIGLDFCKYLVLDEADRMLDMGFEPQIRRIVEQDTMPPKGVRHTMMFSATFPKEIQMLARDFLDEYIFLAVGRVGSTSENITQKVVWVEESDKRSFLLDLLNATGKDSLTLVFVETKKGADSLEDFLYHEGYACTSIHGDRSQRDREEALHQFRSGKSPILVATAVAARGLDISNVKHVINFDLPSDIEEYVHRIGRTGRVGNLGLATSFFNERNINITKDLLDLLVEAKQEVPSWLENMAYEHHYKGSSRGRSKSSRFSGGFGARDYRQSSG",
  "assay": "fluorescence polarization, protein titration",
  "conditions": "FP: 14.4 mM HEPES-KOH pH 8, 108 mM NaCl, 1 mM MgCl2, 14.4% glycerol, 0.1% DMSO, 2 mM DTT, 1 mM ATP, 10 nM probe, room temperature, 10 min",
  "data": [
    {"sequence": "AGAGAGAGAGAGAGAG [FAM-r(AG)8]", "values": [
      {"measurement": "K half", "result": 2800, "unit": "nM"}
    ]}
  ]
}
